Source: patent US20180339057A1 (Novo Nordisk, published 2018)
Where a chain is given by its changes, count along the chain named. In names and notes the source's numbering stands.

T1: human MIC-1 receptor (hGFRAL, GDNF family receptor alpha like), full length (human, UniProt Q6UXV0 19-394)
T1 construct: whole, on cells
T1 sequence (looked up): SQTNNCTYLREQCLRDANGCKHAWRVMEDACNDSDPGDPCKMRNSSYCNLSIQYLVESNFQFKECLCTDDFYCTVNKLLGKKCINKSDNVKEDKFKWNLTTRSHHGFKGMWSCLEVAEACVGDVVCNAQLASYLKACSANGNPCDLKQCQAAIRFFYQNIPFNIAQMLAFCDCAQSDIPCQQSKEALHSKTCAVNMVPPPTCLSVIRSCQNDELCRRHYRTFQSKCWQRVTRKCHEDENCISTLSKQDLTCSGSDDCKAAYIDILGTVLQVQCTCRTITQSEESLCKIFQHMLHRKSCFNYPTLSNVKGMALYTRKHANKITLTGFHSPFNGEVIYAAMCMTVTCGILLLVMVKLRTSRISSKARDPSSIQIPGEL

B1: Macrophage Inhibitory Cytokine-1 (MIC-1), human wild type, monomer sequence SEQ ID NO:1 (ligand)
chain: ARNGDHCPLGPGRCCRLHTVRASLEDLGWADWVLSPREVQVTMCIGACPSQFRAANMHAQIKTSLHRLKPDTVPAPCCVPASYNPMVLIQKTDTGVSLQTYDDLLAKDCHCI
notes: covalently linked homodimer; 112 amino acid monomer = residues 197-308 of the precursor; also called wtMIC-1
B2: SEPATSGSETPGTSESATPESGPGTSTEPSEG-MIC-1-des-N3 (M57L, M86L) (ligand)
chain: SEPATSGSETPGTSESATPESGPGTSTEPSEGARGDHCPLGPGRCCRLHTVRASLEDLGWADWVLSPREVQVTMCIGACPSQFRAANLHAQIKTSLHRLKPDTVPAPCCVPASYNPLVLIQKTDTGVSLQTYDDLLAKDCHCI
notes: homodimer; no protractor
B3: Compound 15 (ligand)
chain 1: B2 chain with K100R, K122R, K138R
chain 2: B2 chain with K100R, K122R, K138R
modifications: alpha-amino group of the N-terminal Ser-32 (residue 1 of SEQ ID NO: 312): N-[4-[[[2-[2-[2-[[2-[2-[2-[[(4S)-4-carboxy-4-(17-carboxyheptadecanoylamino)butanoyl]amino]ethoxy]ethoxy]acetyl]amino]ethoxy]ethoxy]acetyl]amino]methyl]phenyl]methyl (protractor of Example 10.1)
notes: also called monoalkylated
B4: Compound 10 (ligand)
chain: B2 chain
modifications: alpha-amino group of the N-terminal Ser-32 (residue 1 of SEQ ID NO: 164): N-[4-[[[2-[2-[2-[[2-[2-[2-[[(4S)-4-carboxy-4-(17-carboxyheptadecanoylamino)butanoyl]amino]ethoxy]ethoxy]acetyl]amino]ethoxy]ethoxy]acetyl]amino]methyl]phenyl]methyl (protractor of Example 10.1)
notes: homodimer with one protractor on each of the two N-terminal extensions; also called Formula A (C18)
B5: Compound 16 (ligand)
chain: B2 chain with K100R, K122R, K138R
modifications: alpha-amino group of the N-terminal Ser-32 (residue 1 of SEQ ID NO: 312): N-[4-[[[2-[2-[2-[[2-[2-[2-[[(4S)-4-carboxy-4-(17-carboxyheptadecanoylamino)butanoyl]amino]ethoxy]ethoxy]acetyl]amino]ethoxy]ethoxy]acetyl]amino]methyl]phenyl]methyl (protractor of Example 10.1)
notes: homodimer, two protractors per dimer; also called dialkylated
B6: SEPATCGSETPGTSESATPESGPGTSTEPSEG-MIC-1, des-N3 (Cys mutation S(-27)C) (ligand)
chain: B2 chain with S6C, L88M, L117M
notes: homodimer; no protractor
B7: Compound 03 (ligand)
chain: B2 chain with S6C, L88M, L117M
modifications: Cys-27 (residue 6 of SEQ ID NO: 291): S{Beta}-[2-[2-[[2-[2-[2-[[2-[2-[2-[[(4S)-4-carboxy-4-(15-carboxypentadecanoylamino)butanoyl]amino]ethoxy]ethoxy]acetyl]amino]ethoxy]ethoxy]acetyl]amino]ethylamino]-2-oxoethyl]Cys (protractor of Example 10.2)
notes: homodimer, two protractors per dimer
B8: Compound 04 (ligand)
chain: B2 chain with S6C, L88M, L117M
modifications: Cys-27 (residue 6 of SEQ ID NO: 291): S{Beta}-[2-[2-[[2-[2-[2-[[2-[2-[2-[[(4S)-4-carboxy-4-(13-carboxytridecanoylamino)butanoyl]amino]ethoxy]ethoxy]acetyl]amino]ethoxy]ethoxy]acetyl]amino]ethylamino]-2-oxoethyl]Cys (protractor of Example 10.3)
notes: as for B7
B9: Compound 02 (ligand)
chain: B2 chain with S6C, L88M, L117M
modifications: Cys-27 (residue 6 of SEQ ID NO: 291): S{Beta}-[2-[2-[[2-[2-[2-[[2-[2-[2-[[(4S)-4-carboxy-4-(17-carboxyheptadecanoylamino)butanoyl]amino]ethoxy]ethoxy]acetyl]amino]ethoxy]ethoxy]acetyl]amino]ethylamino]-2-oxoethyl]Cys
notes: as for B7
B10: SEPATSGSETPGTSESATPESGPGTSTEPCEG-MIC-1, des-N3, M57L, M86L (Cys mutation S(-3)C) (ligand)
chain: B2 chain with S30C
notes: homodimer; no protractor
B11: SEPATSGSETPGTSESATPESGPGTSTEPSEG-MIC-1, del-N3, M57L, M86L, K69R, K107R, K91R (ligand)
chain: B2 chain with K100R, K122R, K138R
notes: homodimer; no protractor
B12: Compound 19 (ligand)
chain: B2 chain with A4C, L88M, L117M
modifications: Cys-29 (residue 4 of SEQ ID NO: 288): S{Beta}-[2-[[(1S)-1-carboxy-5-[[2-[2-[2-[[2-[2-[2-[[(4S)-4-carboxy-4-[10-(4-carboxyphenoxy)decanoylamino]butanoyl]amino]ethoxy]ethoxy]acetyl]amino]ethoxy]ethoxy]acetyl]amino]pentyl]amino]-2-oxoethyl]Cys (protractor of Example 10.8)
notes: as for B7
B13: SEPATSGSETPGTSESACPESGPGTSTEPSEG-MIC-1, des-N3, M57L, M86L (Cys mutation T(-15)C) (ligand)
chain: B2 chain with T18C
notes: homodimer; no protractor
B14: Compound 18 (ligand)
chain: B2 chain with A4C, L88M, L117M
modifications: Cys-29 (residue 4 of SEQ ID NO: 288): S{Beta}-[2-[[(5S)-5-carboxy-5-[[2-[2-[2-[[2-[2-[2-[4-[17-(1H-tetrazol-5-yl)heptadecanoylsulfamoyl]butanoylamino]ethoxy]ethoxy]acetyl]amino]ethoxy]ethoxy]acetyl]amino]pentyl]amino]-2-oxoethyl]Cys (protractor of Example 10.7)
notes: as for B7
B15: SEPATSCSETPGTSESATPESGPGTSTEPSEG-MIC-1, des-N3, M57L, M86L (Cys mutation G(-26)C) (ligand)
chain: B2 chain with G7C
notes: homodimer; no protractor
B16: SEPCTSGSETPGTSESATPESGPGTSTEPSEG-MIC-1, des-N3 (Cys mutation A(-29)C) (ligand)
chain: B2 chain with A4C, L88M, L117M
notes: homodimer; no protractor
B17: Compound 21 (ligand)
chain: B2 chain with A4C, L88M, L117M
modifications: Cys-29 (residue 4 of SEQ ID NO: 288): S{Beta}-[2-[2-[[2-[2-[2-[[2-[2-[2-[[(4S)-4-carboxy-4-[16-(1H-tetrazol-5-yl)hexadecanoylamino]butanoyl]amino]ethoxy]ethoxy]acetyl]amino]ethoxy]ethoxy]acetyl]amino]ethylamino]-2-oxoethyl]Cys (protractor of Example 10.10)
notes: as for B7
B18: SEPATSGCETPGTSESATPESGPGTSTEPSEG-MIC-1, des-N3, M57L, M86L (Cys mutation S(-25)C) (ligand)
chain: B2 chain with S8C
notes: homodimer; no protractor
B19: Compound 06 (ligand)
chain: B2 chain with S8C
modifications: Cys-25 (residue 8 of SEQ ID NO: 303): S{Beta}-[2-[2-[[2-[2-[2-[[2-[2-[2-[[(4S)-4-carboxy-4-(17-carboxyheptadecanoylamino)butanoyl]amino]ethoxy]ethoxy]acetyl]amino]ethoxy]ethoxy]acetyl]amino]ethylamino]-2-oxoethyl]Cys (protractor of Example 10.4)
notes: as for B7
B20: Compound 11 (ligand)
chain: B2 chain with A4C
modifications: Cys-29 (residue 4 of SEQ ID NO: 290): S{Beta}-[2-[2-[[2-[2-[2-[[2-[2-[2-[[(4S)-4-carboxy-4-(17-carboxyheptadecanoylamino)butanoyl]amino]ethoxy]ethoxy]acetyl]amino]ethoxy]ethoxy]acetyl]amino]ethylamino]-2-oxoethyl]Cys (protractor of Example 10.4)
notes: as for B7
B21: Compound 17 (ligand)
chain: B2 chain with A4C, L88M, L117M
modifications: Cys-29 (residue 4 of SEQ ID NO: 288): S{Beta}-[2-[2-[[2-[2-[2-[[2-[2-[2-[[(4S)-4-carboxy-4-(16-sulfohexadecanoylamino)butanoyl]amino]ethoxy]ethoxy]acetyl]amino]ethoxy]ethoxy]acetyl]amino]ethylamino]-2-oxoethyl]Cys (protractor of Example 10.6)
notes: as for B7
B22: Compound 07 (ligand)
chain: B2 chain with T18C
modifications: Cys-15 (residue 18 of SEQ ID NO: 292): S{Beta}-[2-[2-[[2-[2-[2-[[2-[2-[2-[[(4S)-4-carboxy-4-(17-carboxyheptadecanoylamino)butanoyl]amino]ethoxy]ethoxy]acetyl]amino]ethoxy]ethoxy]acetyl]amino]ethylamino]-2-oxoethyl]Cys (protractor of Example 10.4)
notes: as for B7
B23: Compound 05 (ligand)
chain: B2 chain with G7C
modifications: Cys-26 (residue 7 of SEQ ID NO: 289): S{Beta}-[2-[2-[[2-[2-[2-[[2-[2-[2-[[(4S)-4-carboxy-4-(17-carboxyheptadecanoylamino)butanoyl]amino]ethoxy]ethoxy]acetyl]amino]ethoxy]ethoxy]acetyl]amino]ethylamino]-2-oxoethyl]Cys (protractor of Example 10.4)
notes: as for B7
B24: Compound 20 (ligand)
chain: B2 chain with A4C, L88M, L117M
modifications: Cys-29 (residue 4 of SEQ ID NO: 288): S{Beta}-[2-[[(1S)-1-carboxy-5-[[2-[2-[2-[[2-[2-[2-[[(4S)-4-carboxy-4-[12-(4-carboxyphenoxy)dodecanoylamino]butanoyl]amino]ethoxy]ethoxy]acetyl]amino]ethoxy]ethoxy]acetyl]amino]pentyl]amino]-2-oxoethyl]Cys (protractor of Example 10.9)
notes: as for B7
B25: SEPCTSGSETPGTSESATPESGPGTSTEPSEG-MIC-1, des-N3, M57L, M86L (Cys mutation A(-29)C) (ligand)
chain: B2 chain with A4C
notes: homodimer; no protractor
B26: Compound 01 (ligand)
chain: B2 chain with A4C, L88M, L117M
modifications: Cys-29 (residue 4 of SEQ ID NO: 288): S{Beta}-[2-[2-[[2-[2-[2-[[2-[2-[2-[[(4S)-4-carboxy-4-(17-carboxyheptadecanoylamino)butanoyl]amino]ethoxy]ethoxy]acetyl]amino]ethoxy]ethoxy]acetyl]amino]ethylamino]-2-oxoethyl]Cys (protractor of Example 10.4)
notes: as for B7
B27: Compound 08 (ligand)
chain: B2 chain with S30C
modifications: Cys-3 (residue 30 of SEQ ID NO: 293): S{Beta}-[2-[2-[[2-[2-[2-[[2-[2-[2-[[(4S)-4-carboxy-4-(17-carboxyheptadecanoylamino)butanoyl]amino]ethoxy]ethoxy]acetyl]amino]ethoxy]ethoxy]acetyl]amino]ethylamino]-2-oxoethyl]Cys (protractor of Example 10.4)
notes: as for B7

Target: T1, human MIC-1 receptor (hGFRAL, GDNF …)
Test: SPA: displacement of 50 pM human [125I]-MIC-1 from BHK21-hGFRAL-IRES-hRET cell membranes
Method: Binding potencies of MIC-1 compounds were calculated by IC50 of displacement curves.
BHK21-hGFRAL-IRES-hRET cells were cultured at +37° C. in a humidified atmosphere with 5% CO₂ in complete medium consisting of DMEM with high glucose and sodium pyrovate, heat inactivated 10% Fetal Bovine Serum, 1% Penicillin-Streptomycin, 1 mg/ml G418-Geneticin and 400 ug/ml Hygromycin. Cells were washed twice in ice cold Dulbecco's phosphate-buffered saline (DPBS) and detached mechanically by scraping, transferred in ice cold DPBS into conical centrifuge tubes and centrifuged for 5 min at 1500 rpm at +20° C. Cell pellet was resuspended in a total amount of 10 ml ice cold homogenization buffer A (50 mM Tris, 2.5 mM EDTA, adjust pH7.4 with one EDTA-free protease inhibitor cocktail tablet/50 ml) and homogenized for 20 seconds. The homogenate was centrifuged at 16000 rpm in 20 minutes at +4° C. The supernatant was discarded and the pellet was reconstituted in 10 ml homogenization buffer B (50 mM Tris, 320 mM Sucrose, adjust pH 7.4 with one EDTA-free protease inhibitor cocktail tablet/50 ml) and homogenized for 20 seconds and centrifuged at 16000 rpm in 20 minutes at +4° C. This procedure was repeated one more time. The supernatant was discarded and the pellet was reconstituted in 3 ml homogenization buffer B and homogenized for 10 seconds at low speed. Protein concentration was determined by standard Bradford method and 1.5 mg protein/tube was aliquoted to cryotubes and stored at −80° C. Binding assays were performed in white 96-well plates in a total volume of 200 μl per well. Wheat germ agglutinin SPA beads were reconstituted in assay buffer (50 mM Tris/HCl, 4.5 mM MgCl₂, 0.02% Tween 20 and 0.25% Ovalbumin pH 7.4) and mixed with membrane preparation to give a final concentration of 0.5 mg SPA beads and 10 μg total protein per well. […] The plate was sealed and incubated at +22° C. for 2 hours in a plate shaker set at 350 rpm and thereafter centrifuged at 1500 rpm for 10 minutes prior to reading of SPA bead light emission.

Binder	IC50 [nM]
B1	0.67
B2	119
B3	39
B4	20
B5	11
B6	10
B7	11
B8	17
B9	4.9
B10	83
B11	116
B12	17
B13	29
B14	1.3
B15	36
B16	6.7
B17	1
B18	43
B19	21
B20	29
B21	4.7
B22	29
B23	23
B24	6.5
B25	80
B26	3.8
B27	56

Target: T1, human MIC-1 receptor (hGFRAL, GDNF …)
Test: cell-based or functional assay

Binder	Luciferase + 0.1% HSA NNDK EC50 (pM)	Luciferase NNDK EC50 (pM)
B1	36	59
B2	64	85
B3	39	61
B4	146	71
B5	51	63
B6	45	80
B7	106	96
B8	58	90
B9	107	123
B10	243	217
B11	35	42
B12	62	45
B13	115	125
B14	67	66
B15	26	35
B16	47	70
B17	56	53
B18	34	57
B19	61	81
B20	62	55
B21	65	43
B22	198	121
B23	63	57
B24	77	49
B25	75	100
B26	59	72
B27	651	139

Target: T1, human MIC-1 receptor (hGFRAL, GDNF …)
Test: cell-based or functional assay
Remark: another data set of the same source

Binder	Emax (%)	pERK EC50 (nM)
B1	100	0.3
